Measured values reported in publication PMC7484405.

T1: M2-1 WT (Human respiratory syncytial virus …, UniProt P04545 1-194)
T1 sequence: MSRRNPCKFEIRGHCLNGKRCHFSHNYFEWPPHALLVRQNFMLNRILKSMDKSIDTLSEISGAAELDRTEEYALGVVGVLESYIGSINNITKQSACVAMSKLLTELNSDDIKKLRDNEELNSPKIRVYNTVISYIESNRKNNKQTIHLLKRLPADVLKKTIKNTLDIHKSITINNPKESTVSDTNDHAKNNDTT


What was measured:
M2-1 WT [1] = molecular target: T1, M2-1 WT; assay: MST
M2-1 WT [2] = molecular target: T1, M2-1 WT; assay: X-ray crystallography

| Binder | Kd (M2-1 WT [1]) [nM] | binding result (M2-1 WT [2]) |
| --- | --- | --- |
| AGUUAAUUAAAAA (ssRNA) [SH 13-nt positive-sense gene-end RNA] | 870 |  |
| AGUUAAU (ssRNA) [SH7] |  | binds |
